By EC50 is commonly meant the concentration needed to bring the measured effect to its halfway point.

In assay [1] the target is Human von Willebrand factor (human) (UniProt P04275). The assay is described as follows: ELISA; human vWF immobilised; vWbp with ClfA-A carrying only His tag added to the reaction; bound vWbp assessed with anti-StrepII antibody. For orientation: An ELISA detects its analyte on a solid surface through an enzyme-linked reagent.
Assay [2] shares this target. Nature of the assay: ELISA; human vWF immobilised (100 ng per well); serial dilutions of recombinant ClfA-A (20 μg/mL) or recombinant vWbp (5 μg/mL); detected with anti-StrepII or anti-His HRP antibody.
Assay [3] concerns the target A domain of S. aureus Newman ClfA (clumping factor A), residues 40-559 (Staphylococcus aureus Newman) (UniProt Q53653). Nature of the assay: ELISA; ClfA-A Newman immobilised (100 ng per well); serial dilutions of human complement factor I (20 μg/mL); detected with rabbit anti-factor I polyclonal antibody and anti-rabbit HRP.
The target of assay [4] is A domain of ClfA from S. aureus strain WU1 (Staphylococcus aureus WU1). Nature of the assay: ELISA; ClfA-A proteins immobilised (100 ng per well, carbonate/bicarbonate buffer pH 9.6, 4°C overnight); serial dilutions of soluble human fibrinogen (4 mg/mL) in PBS; bound fibrinogen detected with anti-human fibrinogen-HRP, A450.
The target of assay [5] is A domain of ClfA from S. aureus strain N315 (Staphylococcus aureus N315) (UniProt Q99VJ4). The description is as above.
Assay [6] deals with A domain of ClfA from S. aureus strain USA300 LAC (Staphylococcus aureus USA300 LAC). The description is as above.
The target of assay [7] is T1, A domain of S. aureus Newman ClfA (clumping factor A), residues 40-559 (Staphylococcus aureus Newman, UniProt Q53653 40-559).
T1 construct: Cloned in pET15b (NdeI/BamHI); also called ClfA-A; ClfA-A Newman; source: E. coli BL21, purified (Ni-NTA resin followed by Streptactin resin); not shown: His6, N-terminal, kept
T1 sequence: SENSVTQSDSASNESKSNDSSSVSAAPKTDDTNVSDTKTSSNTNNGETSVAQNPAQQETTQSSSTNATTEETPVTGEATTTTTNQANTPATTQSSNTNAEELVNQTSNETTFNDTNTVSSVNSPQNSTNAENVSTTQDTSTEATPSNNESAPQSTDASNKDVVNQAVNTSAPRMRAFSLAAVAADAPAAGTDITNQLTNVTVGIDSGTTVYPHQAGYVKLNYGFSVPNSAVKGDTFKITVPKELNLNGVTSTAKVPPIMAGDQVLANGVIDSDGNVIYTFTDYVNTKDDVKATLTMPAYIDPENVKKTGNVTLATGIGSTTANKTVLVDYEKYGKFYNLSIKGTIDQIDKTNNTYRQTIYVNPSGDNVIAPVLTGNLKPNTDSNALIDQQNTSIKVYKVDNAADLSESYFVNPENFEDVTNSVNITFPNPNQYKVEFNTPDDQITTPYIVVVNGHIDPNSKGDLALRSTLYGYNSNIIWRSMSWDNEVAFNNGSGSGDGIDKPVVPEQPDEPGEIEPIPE
The assay is described as above. As to conditions: both partners purified.

“vWbp + ClfA-A Newman (from UniProt Q53653 40-559) (complex)” yielded an EC50 in assay [1] of 3500 nM. Turning to “von Willebrand binding protein (vWbp) of S. aureus Newman, recombinant (natural protein)”, in assay [2], the EC50 turned out to be 14500 nM. In turn, Human complement factor I (enzyme) showed a concentration giving a half-maximal response (EC50) in assay [3] of 1800 nM. Consider “Human fibrinogen (from UniProt P02671-2 20-644; P02675 31-491; P02679-2 27-437) (complex)”, for which the 50% effective concentration (EC50) in assay [4] was determined as 1100 nM; in assay [5], 1300 nM; in assay [6], 1000 nM.

B1: Human fibrinogen (complex)
chain 1: ADSGEGDFLAEGGGVRGPRVVERHQSACKDSDWPFCSDEDWNYKCPSGCRMKGLIDEVNQDFTNRINKLKNSLFEYQKNNKDSHSLTTNIMEILRGDFSSANNRDNTYNRVSEDLRSRIEVLKRKVIEKVQHIQLLQKNVRAQLVDMKRLEVDIDIKIRSCRGSCSRALAREVDLKDYEDQQKQLEQVIAKDLLPSRDRQHLPLIKMKPVPDLVPGNFKSQLQKVPPEWKALTDMPQMRMELERPGGNEITRGGSTSYGTGSETESPRNPSSAGSWNSGSSGPGSTGNRNPGSSGTGGTATWKPGSSGPGSTGSWNSGSSGTGSTGNQNPGSPRPGSTGTWNPGSSERGSAGHWTSESSVSGSTGQWHSESGSFRPDSPGSGNARPNNPDWGTFEEVSGNVSPGTRREYHTEKLVTSKGDKELRTGKEKVTSGSTTTTRRSCSKTVTKTVIGPDGHKEVTKEVVTSEDGSDCPEAMDLGTLSGIGTLDGFRHRHPDEAAFFDTASTGKTFPGFFSPMLGEFVSETESRGSESGIFTNTKESSSHHPGIAEFPSRGKSSSYSKQFTSSTSYNRGDSTFESKSYKMADEAGSEADHEGTHSTKRGHAKSRPVRGIHTSPLGKPSLSP
chain 2: QGVNDNEEGFFSARGHRPLDKKREEAPSLRPAPPPISGGGYRARPAKAAATQKKVERKAPDAGGCLHADPDLGVLCPTGCQLQEALLQQERPIRNSVDELNNNVEAVSQTSSSSFQYMYLLKDLWQKRQKQVKDNENVVNEYSSELEKHQLYIDETVNSNIPTNLRVLRSILENLRSKIQKLESDVSAQMEYCRTPCTVSCNIPVVSGKECEEIIRKGGETSEMYLIQPDSSVKPYRVYCDMNTENGGWTVIQNRQDGSVDFGRKWDPYKQGFGNVATNTDGKNYCGLPGEYWLGNDKISQLTRMGPTELLIEMEDWKGDKVKAHYGGFTVQNEANKYQISVNKYRGTAGNALMDGASQLMGENRTMTIHNGMFFSTYDRDNDGWLTSDPRKQCSKEDGGGWWYNRCHAANPNGRYYWGGQYTWDMAKHGTDDGVVWMNWKGSWYSMRKMSMKIRPFFPQQ
chain 3: YVATRDNCCILDERFGSYCPTTCGIADFLSTYQTKVDKDLQSLEDILHQVENKTSEVKQLIKAIQLTYNPDESSKPNMIDAATLKSRKMLEEIMKYEASILTHDSSIRYLQEIYNSNNQKIVNLKEKVAQLEAQCQEPCKDTVQIHDITGKDCQDIANKGAKQSGLYFIKPLKANQQFLVYCEIDGSGNGWTVFQKRLDGSVDFKKNWIQYKEGFGHLSPTGTTEFWLGNEKIHLISTQSAIPYALRVELEDWNGRTSTADYAMFKVGPEADKYRLTYAYFAGGDAGDAFDGFDFGDDPSDKFFTSHNGMQFSTWDNDNDKFEGNCAEQDGSGWWMNKCHAGHLNGVYYQGGTYSKASTPNGYDNGIIWATWKTRWYSMKKTTMKIIPFNRLTIGEGQQHHLGGAKQAGDV
notes: Fibrinogen A-alpha chain, human; Fibrinogen B-beta chain, human; Fibrinogen gamma chain, human; also called Fg; source: bought: Sigma; copies: 2 + 2 + 2
Molecule B1 returned an EC50 in assay [7] of 1300 nM.

The record behind these values is article PMC12505888, “Inhibitory activities of monoclonal antibodies against Staphylococcus aureus clumping factor A” (mBio, 2025).
